Experimental data reported in patent publication US20210063414A1, “METHODS FOR PREVENTING AND/OR TREATING BONE LOSS CONDITIONS BY MODULATING IRISIN” (Dana-Farber Cancer Institute, Inc., priority 2018, published 2021).

Assays:
[1] = target: T1, MLO-Y4 cell surface proteins (Mus musculus, UniProt Q8JZN5); test: Crosslinking/co-immunoprecipitation/mass spectrometry (TMT quantitative proteomics) to identify irisin receptors; type: binding; conditions: co-precipitated protein Acad9 (ACAD9_MOUSE)
T1 construct: endogenous in cells; host or cells: MLO-Y4
T1 sequence (Q8JZN5 42-625): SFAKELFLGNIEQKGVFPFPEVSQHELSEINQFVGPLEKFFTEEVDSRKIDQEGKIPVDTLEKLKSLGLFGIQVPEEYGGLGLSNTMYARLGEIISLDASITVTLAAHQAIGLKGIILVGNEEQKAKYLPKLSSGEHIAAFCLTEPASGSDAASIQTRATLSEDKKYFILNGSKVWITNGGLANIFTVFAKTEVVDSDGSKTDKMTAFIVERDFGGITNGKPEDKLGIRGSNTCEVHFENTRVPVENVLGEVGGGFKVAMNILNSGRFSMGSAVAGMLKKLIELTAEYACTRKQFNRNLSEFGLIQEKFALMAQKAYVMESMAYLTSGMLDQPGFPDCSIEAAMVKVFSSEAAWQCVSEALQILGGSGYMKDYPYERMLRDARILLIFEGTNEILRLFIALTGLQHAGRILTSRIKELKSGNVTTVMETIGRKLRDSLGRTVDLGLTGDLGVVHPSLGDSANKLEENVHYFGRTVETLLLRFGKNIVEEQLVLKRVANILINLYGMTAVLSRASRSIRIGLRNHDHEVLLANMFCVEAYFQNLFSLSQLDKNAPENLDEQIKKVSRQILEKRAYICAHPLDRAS
Method in brief: (§1)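 Relative protein abundance came from 6-plex TMT MS3 quantitation on an Orbitrap Fusion Lumos, after in-gel trypsin digestion of Coomassie-stained SDS-PAGE lanes. Input was a Ni-NTA pulldown (250 mM imidazole elution) of lysates from murine MLO-Y4 cells. These cells were treated on ice with His-tagged irisin or adipsin (10 nM, 20 min) in serum-free medium, then crosslinked with 1.5 mM DTSSP for 30 min.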

[2] = target: T2, MLO-Y4 cell surface proteins (Mus musculus, UniProt P55292); test: as above; type: binding; conditions: co-precipitated protein Dsc2 (DSC2_MOUSE)
T2 construct: endogenous in cells; host or cells: MLO-Y4
T2 sequence (P55292 136-902): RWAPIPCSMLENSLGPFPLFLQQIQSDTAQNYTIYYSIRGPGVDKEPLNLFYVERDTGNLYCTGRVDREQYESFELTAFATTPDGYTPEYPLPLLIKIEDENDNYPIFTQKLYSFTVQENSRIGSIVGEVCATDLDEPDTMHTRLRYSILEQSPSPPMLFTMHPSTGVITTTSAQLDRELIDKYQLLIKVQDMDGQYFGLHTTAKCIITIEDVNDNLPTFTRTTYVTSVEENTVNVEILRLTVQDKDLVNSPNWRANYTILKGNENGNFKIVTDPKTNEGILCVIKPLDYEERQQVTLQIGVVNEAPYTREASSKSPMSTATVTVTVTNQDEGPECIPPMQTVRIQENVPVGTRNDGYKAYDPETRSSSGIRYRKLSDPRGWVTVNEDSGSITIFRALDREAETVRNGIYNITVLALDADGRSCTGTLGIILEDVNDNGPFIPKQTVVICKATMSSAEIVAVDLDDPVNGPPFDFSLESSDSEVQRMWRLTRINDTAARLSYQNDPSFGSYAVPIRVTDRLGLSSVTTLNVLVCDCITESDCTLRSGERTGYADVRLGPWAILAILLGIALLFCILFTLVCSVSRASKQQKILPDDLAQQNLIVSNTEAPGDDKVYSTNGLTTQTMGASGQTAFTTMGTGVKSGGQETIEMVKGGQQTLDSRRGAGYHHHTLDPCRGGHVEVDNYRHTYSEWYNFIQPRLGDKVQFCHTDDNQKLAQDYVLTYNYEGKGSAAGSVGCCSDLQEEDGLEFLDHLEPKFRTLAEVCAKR
Method in brief: as §1

B1: irisin: secreted cleaved form of FNDC5; recombinant human/mouse irisin with C-terminal his tag produced in HEK293 cells (protein)
chain: DSPSAPVNVTVRHLKANSAVVSWDVLEDEVVIGFAISQQKKDVRMLRFIQEVNTTTRSCALWDLEEDTEYIVHVQAISIQGQSPASEPVLFKTPREAEKMASKNKDEVTMKE
modifications: left off: small tags and cut ends
notes: secreted cleaved form of FNDC5; recombinant human/mouse irisin with C-terminal his tag produced in HEK293 cells
TMT signal-to-noise ratio [1]: 61.8219 | irisin/adipsin TMT signal-to-noise ratio [1]: 0.486 | TMT signal-to-noise ratio [2]: 3.51 | irisin/adipsin TMT signal-to-noise ratio [2]: 0.037
